In paper PMC3948749, “Engineering of Pyranose Dehydrogenase for Increased Oxygen Reactivity” (PLoS ONE, 2014) one finds Km, kcat and kcat/Km data, which are given here for two proteins.

Substrate in the series: O=C1C(Cl)=CC(=Nc2ccc(O)cc2)C=C1Cl
The series can be described thus: steady-state kinetics, DCIP reduction. Conditions: apparent, electron acceptor, 25 mM D-glucose as donor, pH 4, 30 °C. The class given is biochemical, Macropsalliota meleagris. An excerpt: steady-state kinetics, DCIP reduction on AmPDH (Agaricus meleagris pyranose dehydrogenase, pdh1)

B1: AmPDH (Agaricus meleagris pyranose dehydrogenase, pdh1) (Macropsalliota meleagris) (protein)
chain: AITYQHPDDLPSGVDYDFIVAGGGTAGLVVASRLSENSNWKVLVIEAGPSNKDAFVTRVPGLASTLGAGSPIDWNYTTIPQDGLDGRSLDYPRAKILGGCSTHNGMVYTRGSKDDWNSWAGIIGDQGLGWDSILPAIKKAEKFTQDFTDQSVKGHIDPSVHGFDGKLSVSAAYSNISFNDLLFETTKELNAEFPFKLDMNDGKPIGLGWTQYTIDNHAERSSSATSYLESTGDNVHVLVNTLVTRVLSASGNGTDFRKVEFAVDANSPKKQLEAKKEVIVAGGVIASPQILMNSGIGERKVLQAVGIDTLIDNPSVGKNLSDQGATSVMFDTTLPSTDFDVDAALTEWTNSHTGPLARGARLNHLTFVRLPDDKLNGQDPSSGKNSPHIEFQFAQITPQVPTLGVPKQAPLPAANSYRLLLQLAVVNLYSISRGSISLSDNNPFTYPLIDLNMFKEDIDIAILREGIRSAGRMFSSKAFKNSVNKFVYPPADATSDEDLDAFLRSSTFSYVHGVGTLSMSPKGASWGVVNPDFKVKGTSGLRVVDASVIPHAPAAHTQLPVYAFAEYASALIAKSYN
notes: monomeric glycoprotein about 90 kDa, 64 kDa deglycosylated
For orientation: Km means the concentration of substrate that gives half-maximal velocity. In general, kcat refers to the number of substrate molecules converted per active site and unit of time at saturation. As a reminder, the kcat/Km is the turnover number divided by the Michaelis constant. For the protein B1, the Michaelis-Menten constant (Km) came to 140 ± 10 µM, the kcat came out at 40.7 ± 4.1 s⁻¹ and the kcat/Km is 291000 M⁻¹ s⁻¹.

B2: AmPDH (Agaricus meleagris pyranose dehydrogenase, pdh1) (Macropsalliota meleagris; H128Y) (protein)
chain: AITYQHPDDLPSGVDYDFIVAGGGTAGLVVASRLSENSNWKVLVIEAGPSNKDAFVTRVPGLASTLGAGSPIDWNYTTIPQDGLDGRSLDYPRAKILGGCSTYNGMVYTRGSKDDWNSWAGIIGDQGLGWDSILPAIKKAEKFTQDFTDQSVKGHIDPSVHGFDGKLSVSAAYSNISFNDLLFETTKELNAEFPFKLDMNDGKPIGLGWTQYTIDNHAERSSSATSYLESTGDNVHVLVNTLVTRVLSASGNGTDFRKVEFAVDANSPKKQLEAKKEVIVAGGVIASPQILMNSGIGERKVLQAVGIDTLIDNPSVGKNLSDQGATSVMFDTTLPSTDFDVDAALTEWTNSHTGPLARGARLNHLTFVRLPDDKLNGQDPSSGKNSPHIEFQFAQITPQVPTLGVPKQAPLPAANSYRLLLQLAVVNLYSISRGSISLSDNNPFTYPLIDLNMFKEDIDIAILREGIRSAGRMFSSKAFKNSVNKFVYPPADATSDEDLDAFLRSSTFSYVHGVGTLSMSPKGASWGVVNPDFKVKGTSGLRVVDASVIPHAPAAHTQLPVYAFAEYASALIAKSYN
notes: as for B1
Take B2: the Michaelis-Menten constant (Km) stood at 20 ± 10 µM, the catalytic constant (kcat) came to 2.8 ± 0.5 s⁻¹ and the kcat/Km amounted to 140000 M⁻¹ s⁻¹.
